# In paper PMC3104014 (The Biochemical journal, 2010):
# B1: rat RNF4 RING domain (residues 124-194) (domain or fragment, UniProt O88846 124-194, looked up)
# chain: GTTGLRPSGTVSCPICMDGYSEIVQNGRLIVSTECGHVFCSQCLRDSLKNANTCPTCRKKINHKRYHPIYI
# Biological target: the molecule itself
# Assay: SEC-MALS
protein,measurement,value
B1,stoichiometry N,2
